From patent publication US20210340231A1 (FAPON BIOTECH, published 2021)
Changes are numbered by the printed parent chain. One block for each binder: values may come before it.

Target: T1, CTNI quality control recombinant protein (PK2-CTNI-1, 170120, produced by the applicant) (human, UniProt P19429 2-210, limits assumed)
T1 construct: also called cardiac troponin I
Test: AMC sensor kinetics, antibody captured, cTnI analyte
Protocol: Using the AMC sensor, the purified antibody was diluted with PBST to 10 μg/ml, and the CTNI quality control recombinant protein (PK2-CTNI-1, 170120, produced by the applicant) was serially diluted with PBST to 400 nmol/ml, 200 nmol/ml, 100 nmol/ml, 50 nmol/ml, 25 nmol/ml, 12.5 nmol/ml, 6.25 nmol/ml, and 0 nmol/ml.

T1 sequence (P19429 2-210 limits assumed): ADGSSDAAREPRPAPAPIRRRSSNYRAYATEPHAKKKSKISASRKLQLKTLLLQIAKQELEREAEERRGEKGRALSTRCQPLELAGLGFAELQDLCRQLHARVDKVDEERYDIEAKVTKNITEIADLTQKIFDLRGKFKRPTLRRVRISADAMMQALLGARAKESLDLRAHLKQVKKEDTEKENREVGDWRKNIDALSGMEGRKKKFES

B1: Mutation 1-1 (antibody, V domains shown)
VH: EVQLQQSGAELVKPGASVKLSCTASGFNLKDYYMHWMKQRTEQGLDWIGRIDPEDAETKYAPEFQGKATITADTSSNTAYLQLSTLTSEDTAVYYCARYYSSYLPFVYWGQGTLVTASA
VL: DVVMTQTPLSLSVSLGDQASISCRSSQSILYSNRHTYLHWYLQKPGQSPKLLIFQLSNRFSGVPDRFSGSGSGTDFTLKINRVEAEDLGVYFCSQSTHLPYTFGSGTKLEIKR
notes: built as for Mutation 1
- Kd: 865 pM
- koff: 0.000311 s⁻¹
- kon: 359000 M⁻¹ s⁻¹

B4: Mutation 1-10 (antibody, V domains shown)
VH: B1 VH with L29I, Y33F, K59R
VL: B1 VL with L30I
notes: built as for Mutation 1
- Kd: 922 pM
- koff: 0.000413 s⁻¹
- kon: 448000 M⁻¹ s⁻¹

B6: Mutation 1-17 (antibody, V domains shown)
VH: B1 VH with K59R
VL: B1 VL with L30I, L99I
notes: built as for Mutation 1
- Kd: 722 pM
- koff: 0.000565 s⁻¹
- kon: 782000 M⁻¹ s⁻¹

B9: Mutation 1-25 (antibody, V domains shown)
VH: B1 VH with A56G, K59R, L104I
VL: B1 VL with L30I, L56I
notes: built as for Mutation 1
- Kd: 970 pM
- koff: 0.000659 s⁻¹
- kon: 679000 M⁻¹ s⁻¹

B11: Mutation 1-29 (antibody, V domains shown)
VH: B1 VH with A56G, L104V
VL: B1 VL with I29L, L56V
notes: built as for Mutation 1
- Kd: 698 pM
- koff: 0.000115 s⁻¹
- kon: 165000 M⁻¹ s⁻¹

B12: Mutation 1-12 (antibody, V domains shown)
VH: B1 VH with Y33F, A56G
VL: B1 VL
notes: built as for Mutation 1
- Kd: 834 pM
- koff: 0.000258 s⁻¹
- kon: 309000 M⁻¹ s⁻¹

B13: Mutation 1-7 (antibody, V domains shown)
VH: B1 VH with L29I, K59R, L104I
VL: B1 VL with I29L, L30I, L56I
notes: built as for Mutation 1
- Kd: 804 pM
- koff: 0.00056 s⁻¹
- kon: 697000 M⁻¹ s⁻¹

B16: Mutation 1-36 (antibody, V domains shown)
VH: B1 VH with A56G, K59R
VL: B1 VL with L30I, L99I
notes: built as for Mutation 1
- Kd: 809 pM
- koff: 0.000452 s⁻¹
- kon: 559000 M⁻¹ s⁻¹

B17: Mutation 1-26 (antibody, V domains shown)
VH: B1 VH with L29I, Y33F, A56G
VL: B1 VL with Y101F
notes: built as for Mutation 1
- Kd: 692 pM
- koff: 0.00023 s⁻¹
- kon: 333000 M⁻¹ s⁻¹

B18: Mutation 1-41 (antibody, V domains shown)
VH: B1 VH with L29I, A56G, K59R, L104I
VL: B1 VL with L56I, L99I
notes: built as for Mutation 1
- Kd: 723 pM
- koff: 0.000393 s⁻¹
- kon: 544000 M⁻¹ s⁻¹

B20: Mutation 1-15 (antibody, V domains shown)
VH: B1 VH with L29I, A56G, K59R, L104V
VL: B1 VL with L30I, L56V, L99I
notes: built as for Mutation 1
- Kd: 917 pM
- koff: 0.000245 s⁻¹
- kon: 267000 M⁻¹ s⁻¹

B22: Mutation 1-9 (antibody, V domains shown)
VH: B1 VH with A56G, L104I
VL: B1 VL with I29L, L56I, L99I
notes: built as for Mutation 1
- Kd: 866 pM
- koff: 9.18e-05 s⁻¹
- kon: 106000 M⁻¹ s⁻¹

B23: Mutation 1-20 (antibody, V domains shown)
VH: B1 VH with Y33F, A56G, L104V
VL: B1 VL with I29L, L30I, L56V, L99I, Y101F
notes: built as for Mutation 1
- Kd: 945 pM
- koff: 0.000158 s⁻¹
- kon: 167000 M⁻¹ s⁻¹

B26: Mutation 1-13 (antibody, V domains shown)
VH: B1 VH with K59R, L104V
VL: B1 VL with I29L, L30I, L56V, Y101F
notes: built as for Mutation 1
- Kd: 806 pM
- koff: 0.000251 s⁻¹
- kon: 311000 M⁻¹ s⁻¹

B27: Mutation 1-22 (antibody, V domains shown)
VH: B1 VH with L29I, Y33F, A56G, K59R, L104V
VL: B1 VL with L30I, L56V
notes: built as for Mutation 1
- Kd: 725 pM
- koff: 0.000215 s⁻¹
- kon: 297000 M⁻¹ s⁻¹

B28: Mutation 1-47 (antibody, V domains shown)
VH: B1 VH with L104V
VL: B1 VL with I29L, L56V, Y101F
notes: built as for Mutation 1
- Kd: 810 pM
- koff: 0.000507 s⁻¹
- kon: 626000 M⁻¹ s⁻¹

B29: Mutation 1-40 (antibody, V domains shown)
VH: B1 VH with A56G, L104I
VL: B1 VL with I29L, L56I, Y101F
notes: built as for Mutation 1
- Kd: 818 pM
- koff: 0.000164 s⁻¹
- kon: 200000 M⁻¹ s⁻¹

B30: Mutation 1-33 (antibody, V domains shown)
VH: B1 VH with L104V
VL: B1 VL with I29L, L30I, L56V, L99I, Y101F
notes: built as for Mutation 1
- Kd: 986 pM
- koff: 0.000881 s⁻¹
- kon: 894000 M⁻¹ s⁻¹

B31: Mutation 1-51 (antibody, V domains shown)
VH: B1 VH with A56G, K59R
VL: B1 VL with I29L, L30I
notes: built as for Mutation 1
- Kd: 765 pM
- koff: 7.54e-05 s⁻¹
- kon: 98600 M⁻¹ s⁻¹

B35: Mutation 1-39 (antibody, V domains shown)
VH: B1 VH with Y33F, A56G, K59R, L104V
VL: B1 VL with I29L, L30I, L56V
notes: built as for Mutation 1
- Kd: 756 pM
- koff: 0.000469 s⁻¹
- kon: 620000 M⁻¹ s⁻¹

B36: Mutation 1-46 (antibody, V domains shown)
VH: B1 VH with Y33F, K59R, L104I
VL: B1 VL with I29L, L30I, L56I, L99I, Y101F
notes: built as for Mutation 1
- Kd: 723 pM
- koff: 0.00027 s⁻¹
- kon: 373000 M⁻¹ s⁻¹

B37: Mutation 1-48 (antibody, V domains shown)
VH: B1 VH with L29I, Y33F, A56G, K59R, L104I
VL: B1 VL with L30I, L56I
notes: built as for Mutation 1
- Kd: 956 pM
- koff: 0.00065 s⁻¹
- kon: 680000 M⁻¹ s⁻¹

B38: Mutation 1-27 (antibody, V domains shown)
VH: B1 VH with L29I, K59R, L104I
VL: B1 VL with I29L, L30I, L56I, L99I
notes: built as for Mutation 1
- Kd: 850 pM
- koff: 0.000844 s⁻¹
- kon: 993000 M⁻¹ s⁻¹

Next, values leading:

- Kd: 538 pM
- koff: 0.000298 s⁻¹
- kon: 553000 M⁻¹ s⁻¹
B2: Mutation 1-49 (antibody, V domains shown)
VH: B1 VH with L29I, K59R
VL: B1 VL with L99I
notes: built as for Mutation 1

- Kd: 189 pM
- koff: 0.000101 s⁻¹
- kon: 536000 M⁻¹ s⁻¹
B3: Mutation 1-28 (antibody, V domains shown)
VH: B1 VH with Y33F
VL: B1 VL with I29L, L30I, Y101F
notes: built as for Mutation 1

- Kd: 574 pM
- koff: 0.000276 s⁻¹
- kon: 480000 M⁻¹ s⁻¹
B5: Mutation 1-35 (antibody, V domains shown)
VH: B1 VH with L29I, K59R
VL: B1 VL with L30I
notes: built as for Mutation 1

- Kd: 676 pM
- koff: 0.000477 s⁻¹
- kon: 705000 M⁻¹ s⁻¹
B7: Mutation 1-21 (antibody, V domains shown)
VH: B1 VH
VL: B1 VL with I29L, Y101F
notes: built as for Mutation 1

- Kd: 623 pM
- koff: 0.0001 s⁻¹
- kon: 161000 M⁻¹ s⁻¹
B8: Mutation 1-5 (antibody, V domains shown)
VH: B1 VH with A56G, K59R, L104I
VL: B1 VL with L30I, L56I, L99I, Y101F
notes: built as for Mutation 1

- Kd: 487 pM
- koff: 0.000191 s⁻¹
- kon: 393000 M⁻¹ s⁻¹
B10: Mutation 1-19 (antibody, V domains shown)
VH: B1 VH with L29I, A56G, K59R
VL: B1 VL with I29L, L30I, L99I, Y101F
notes: built as for Mutation 1

- Kd: 662 pM
- koff: 0.000101 s⁻¹
- kon: 152000 M⁻¹ s⁻¹
B14: Mutation 1-16 (antibody, V domains shown)
VH: B1 VH with Y33F, K59R, L104I
VL: B1 VL with I29L, L56I
notes: built as for Mutation 1

- Kd: 509 pM
- koff: 8.4e-05 s⁻¹
- kon: 165000 M⁻¹ s⁻¹
B15: Mutation 1-32 (antibody, V domains shown)
VH: B1 VH with Y33F, A56G, K59R, L104I
VL: B1 VL with L56I, Y101F
notes: built as for Mutation 1

- Kd: 623 pM
- koff: 0.000268 s⁻¹
- kon: 430000 M⁻¹ s⁻¹
B19: Mutation 1-2 (antibody, V domains shown)
VH: B1 VH with L29I, Y33F, A56G, K59R, L104V
VL: B1 VL with I29L, L30I, L56V, L99I, Y101F
notes: built as for Mutation 1

- Kd: 303 pM
- koff: 2.58e-05 s⁻¹
- kon: 85100 M⁻¹ s⁻¹
B21: Mutation 1-8 (antibody, V domains shown)
VH: B1 VH with Y33F, A56G, K59R
VL: B1 VL with I29L, L30I, Y101F
notes: built as for Mutation 1

- Kd: 347 pM
- koff: 0.00018 s⁻¹
- kon: 520000 M⁻¹ s⁻¹
B24: Mutation 1-42 (antibody, V domains shown)
VH: B1 VH with Y33F, A56G
VL: B1 VL with I29L
notes: built as for Mutation 1

- Kd: 168 pM
- koff: 3.24e-05 s⁻¹
- kon: 193000 M⁻¹ s⁻¹
B25: Mutation 1-45 (antibody, V domains shown)
VH: B1 VH with L29I, A56G, L104V
VL: B1 VL with I29L, L30I, L56V, L99I, Y101F
notes: built as for Mutation 1

- Kd: 669 pM
- koff: 0.000362 s⁻¹
- kon: 541000 M⁻¹ s⁻¹
B32: Mutation 1-30 (antibody, V domains shown)
VH: B1 VH with L29I, Y33F, K59R
VL: B1 VL with L30I, L99I, Y101F
notes: built as for Mutation 1

- Kd: 676 pM
- koff: 0.000122 s⁻¹
- kon: 181000 M⁻¹ s⁻¹
B33: Mutation 1-3 (antibody, V domains shown)
VH: B1 VH with L29I, A56G
VL: B1 VL with I29L, L99I
notes: built as for Mutation 1

- Kd: 651 pM
- koff: 7.75e-05 s⁻¹
- kon: 119000 M⁻¹ s⁻¹
B34: Mutation 1-43 (antibody, V domains shown)
VH: B1 VH with K59R, L104V
VL: B1 VL with L30I, L56V, L99I
notes: built as for Mutation 1
